T1: bovine LPL (bovine, UniProt P11151 29-478, limits assumed)
T1 sequence (looked up): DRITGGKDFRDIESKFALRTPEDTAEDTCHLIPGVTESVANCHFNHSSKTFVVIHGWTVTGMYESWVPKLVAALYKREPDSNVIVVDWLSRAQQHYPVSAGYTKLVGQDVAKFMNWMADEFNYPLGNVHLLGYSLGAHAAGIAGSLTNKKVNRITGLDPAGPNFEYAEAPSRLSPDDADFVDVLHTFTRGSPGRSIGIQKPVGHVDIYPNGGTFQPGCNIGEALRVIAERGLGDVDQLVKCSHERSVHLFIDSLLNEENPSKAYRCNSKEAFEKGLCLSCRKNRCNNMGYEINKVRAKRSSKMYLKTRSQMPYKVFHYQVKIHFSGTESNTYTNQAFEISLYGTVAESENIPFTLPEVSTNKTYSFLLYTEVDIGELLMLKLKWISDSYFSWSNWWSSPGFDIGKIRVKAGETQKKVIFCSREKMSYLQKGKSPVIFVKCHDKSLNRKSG

T2: mANGPTL3(17-455)-His (Mus musculus, UniProt Q9R182 17-455)
T2 construct: Bought protein (R&D Systems); also called full-length mature ANGPTL3 from Mus musculus with a C-terminal decahistidine tag
T2 sequence: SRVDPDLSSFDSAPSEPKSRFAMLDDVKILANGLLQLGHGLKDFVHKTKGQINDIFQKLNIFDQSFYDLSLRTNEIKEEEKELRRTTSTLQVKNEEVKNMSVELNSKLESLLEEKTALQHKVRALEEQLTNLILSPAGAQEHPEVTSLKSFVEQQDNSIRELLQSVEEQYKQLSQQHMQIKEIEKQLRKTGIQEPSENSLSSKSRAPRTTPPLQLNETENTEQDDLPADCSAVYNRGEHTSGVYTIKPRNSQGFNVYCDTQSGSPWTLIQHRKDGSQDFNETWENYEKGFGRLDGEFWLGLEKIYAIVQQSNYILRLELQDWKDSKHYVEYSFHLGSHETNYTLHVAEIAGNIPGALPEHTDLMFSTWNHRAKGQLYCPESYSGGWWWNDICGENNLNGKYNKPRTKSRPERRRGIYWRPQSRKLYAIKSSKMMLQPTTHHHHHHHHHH

T3: hANGPTL3(17-460)-His (human, UniProt Q9Y5C1 17-460)
T3 construct: Bought protein (R&D Systems); also called full-length mature human ANGPTL3 with a C-terminal decahistidine tag; Human ANGPTL3 (17-460)-His
T3 sequence: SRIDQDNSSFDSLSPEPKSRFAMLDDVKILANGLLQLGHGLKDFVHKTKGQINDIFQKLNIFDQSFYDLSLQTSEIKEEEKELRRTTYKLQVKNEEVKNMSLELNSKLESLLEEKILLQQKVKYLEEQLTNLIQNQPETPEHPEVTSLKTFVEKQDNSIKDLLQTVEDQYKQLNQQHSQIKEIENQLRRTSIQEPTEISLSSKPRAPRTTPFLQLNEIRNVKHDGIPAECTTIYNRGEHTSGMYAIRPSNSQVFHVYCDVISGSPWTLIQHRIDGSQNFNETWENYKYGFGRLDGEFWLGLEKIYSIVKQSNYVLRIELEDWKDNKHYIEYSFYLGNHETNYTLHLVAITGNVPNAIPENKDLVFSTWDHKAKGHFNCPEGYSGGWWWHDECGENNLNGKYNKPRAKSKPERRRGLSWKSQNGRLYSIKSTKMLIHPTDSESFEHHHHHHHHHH


Assays:
bovine LPL [1] = molecular target: T1, bovine LPL; assay: cell-based or functional assay
bovine LPL [2] = molecular target: T1, bovine LPL; assay: cell-based or functional assay; remark: listed apart in the source
mANGPTL3(17-455)-His = molecular target: T2, mANGPTL3(17-455)-His; assay: SPR Biacore, antigen captured, 37C, pH 7.4, HBS-EP
Description: (§1) All kinetic binding experiments were performed at 25° C. or 37° C. on a BIACORE™ T200 label-free molecular interaction instrument (GE Healthcare) using a CM5 sensor chip. Briefly, an antigen capture surface was generated by covalently coupling either an anti-mouse IgG-specific antibody (anti-mFc; GE Healthcare; catalog #BR-1008-38) or an anti-pentahistidine-specific antibody (Qiagen; catalog #34660) to the surface of a CM5 sensor chip using a standard amine coupling method.

hANGPTL3(17-460)-His [3] = molecular target: T3, hANGPTL3(17-460)-His; assay: SPR Biacore, antigen captured, 37C, pH 7.4, HBS-EP
Description: as §1

hANGPTL3(17-460)-His [4] = molecular target: T3, hANGPTL3(17-460)-His; assay: Biacore cross-competition; second antibody after pre-loading with Negative Control
Description: (§2) Cross competition experiments were performed at 25° C. on a Biacore essentially as described in Example 3 above. […] The results are shown in Table 8 with binding response for the first antibody (mAb1), followed by binding response of the second antibody (mAb2) on the ANGPTL3 surface pre-loaded with the first antibody. Numbers in bold indicate that the antibody pairs are able to bind to hANGPTL3 simultaneously. Numbers in italics indicate that that the antibody pairs are able to bind to hANGPTL3 simultaneously when added sequentially in one direction but not the other. Brackets indicate self-self competition.

hANGPTL3(17-460)-His [5] = molecular target: T3, hANGPTL3(17-460)-His; assay: Biacore cross-competition; second antibody after pre-loading with competitor H4H1292P
Description: as §2

hANGPTL3(17-460)-His [6] = molecular target: T3, hANGPTL3(17-460)-His; assay: Biacore cross-competition; second antibody after pre-loading with competitor H4H1279P
Description: as §2

hANGPTL3(17-460)-His [7] = molecular target: T3, hANGPTL3(17-460)-His; assay: Biacore cross-competition, 25C; first antibody at 25 µg/ml on captured antigen
Description: as §2

hANGPTL3(17-460)-His [8] = molecular target: T3, hANGPTL3(17-460)-His; assay: Biacore cross-competition; second antibody after pre-loading with competitor H4H1250P
Description: as §2

Row | Binder | EC50 (nM), inhibition of LPL activity (bovine LPL [1]) [nM] | IC50 for blocking LPL (bovine LPL [2]) [nM] | Kd (mANGPTL3(17-455)-His) [nM] | koff (mANGPTL3(17-455)-His) [s⁻¹] | kon (mANGPTL3(17-455)-His) [M⁻¹ s⁻¹] | t1/2 (mANGPTL3(17-455)-His) [min] | Kd (hANGPTL3(17-460)-His [3]) [nM] | koff (hANGPTL3(17-460)-His [3]) [s⁻¹] | kon (hANGPTL3(17-460)-His [3]) [M⁻¹ s⁻¹] | t1/2 (hANGPTL3(17-460)-His [3]) [min] | mAb2 binding response (RU) (hANGPTL3(17-460)-His [4]) | mAb2 binding response (RU) (hANGPTL3(17-460)-His [5]) | mAb2 binding response (RU) (hANGPTL3(17-460)-His [6]) | mAb1 binding response (RU) (hANGPTL3(17-460)-His [7]) | mAb2 binding response (RU) (hANGPTL3(17-460)-His [8])
1 | mANGPTL3(17-240)-His (other) GAPSRVDPDLSSFDSAPSEPKSRFAMLDDVKILANGLLQLGHGLKDFVHKTKGQINDIFQKLNIFDQSFYDLSLRTNEIKEEEKELRRTTSTLQVKNEEVKNMSVELNSKLESLLEEKTALQHKVRALEEQLTNLILSPAGAQEHPEVTSLKSFVEQQDNSIRELLQSVEEQYKQLSQQHMQIKEIEKQLRKTGIQEPSENSLSSKSRAPRTTPPLQLNETENTEQDASHHHHHH | 199 | 341 | – | – | – | – | – | – | – | – | – | – | – | – | –
2 | hANGPTL3(17-169)-mFc (Fc fusion) SRIDQDNSSFDSLSPEPKSRFAMLDDVKILANGLLQLGHGLKDFVHKTKGQINDIFQKLNIFDQSFYDLSLQTSEIKEEEKELRRTTYKLQVKNEEVKNMSLELNSKLESLLEEKILLQQKVKYLEEQLTNLIQNQPETPEHPEVTSLKTFVEEPRGPTIKPCPPCKCPAPNLLGGPSVFIFPPKIKDVLMISLSPIVTCVVVDVSEDDPDVQISWFVNNVEVHTAQTQTHREDYNSTLRVVSALPIQHQDWMSGKEFKCKVNNKDLPAPIERTISKPKGSVRAPQVYVLPPPEEEMTKKQVTLTCMVTDFMPEDIYVEWTNNGKTELNYKNTEPVLDSDGSYFMYSKLRVEKKNWVERNSYSCSVVHEGLHNHHTTKSFSRTPGK | 16 | 47 | – | – | – | – | – | – | – | – | – | – | – | – | –
3 | H1M896N (antibody, V domains shown) VH: EVQLLESGGGLVQPGGSLRLSCAASGFTFSTYAMSWVRQAPGKGLEGVSGISGTGYRTYYADSVKGRFTISRDNSKNSLYLQMNSLRAEDTAVYYCAKDRGLLWFGELTYWGQGTLVTVSS VL: DIQMTQSPSTLSASVGDRVTITCRASQSINNWLAWYQQKPGKAPNLLIYKASSLESGVPSRFSGSGSGTEFTLTISSLQPDDFATYYCQQYNDYWTFGQGTKVEIK | – | – | 0.682 | 0.00247 | 3.62e+06 | 5 | 0.158 | 0.00053 | 3.36e+06 | 22 | 149 | 182 | 186 | 171 | -4

— patent publication US20150197564A1 (Regeneron, published 2015)
